According to the nanobody polyreactivity screen of Harvey et al. (2022):

Assay: yeast display, Sf9 membrane polyspecificity reagent, FACS + sequencing; frameworks hold sequencing errors
Method in brief: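 After 36–48 hours of galactose induction, yeast (Saccharomyces cerevisiae BJ5465) displaying a synthetic nanobody library were stained at 4 °C for 1 hour with 10% biotinylated, detergent-solubilized Sf9 membrane reagent. Streptavidin microbeads enriched the stained cells before FACS sorting into low and high (top ~1%) gates on anti-HA and streptavidin fluorescence. Each clone's polyreactivity label reflects its gate of origin.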

Sequence | polyreactivity (PSR sort gate)
QVQLVESGGGLVQAGGSLRLSCAASGFIFVSKAMGWSRQAPGKERELVAAITTGGSTNYADSVKGRFTISRDNAKYTVYLLMNSLKPEDTAVYYCAADGRYSTYIYLHDYWGQGTQVTVSS | low polyreactivity
QVQLVESGGGLVQAGGSLRLSCAASGNIFPGYAMGWYRQAPGKERELVAGISGSGGRTYYADSVKGRFTISRDNAKNTVYLQMNSLKTEDTAVYYCAAAFKYYYRFEYDYWGQGTQVTVSS | low polyreactivity
QVQLVESGGGLVQAGGSLRLICAASGRIFSYYAMGWYRQAPGKERELVARITSRGASTYYADSVKGRFTISRDNAKNTVYLQMNSLKPEDTAVYYCAARYIPIQYPSYRTWGGYSWGQGTQVTVSS | high polyreactivity
QVQLVESGGGLVQAGGSLRLSCAASGSTFLVNAMGWYRQAPGKERELVAAITSGGDTNYADSVKGRFTISHDNAKNTVYLQMNSLKPEDTEVYYCATDYFNYRYFDFRWYYYWGQGTQVTVSS | high polyreactivity
QVHLVESGRGLVQSGGSLRLSCADSGSTFATNAMGWYRQAPGKERELVAAITSRGGTYYADSVKRRFTISRDKAKNTVYLQMNSLKPEDTAVYYCNAVSRYAFDYCGQGTQVTVSS | high polyreactivity
QVQLVESGGGLVQAGGSLRLSCAASGRIFDEYAMGWYRQAPGKERELVAAIDTSTGSTYYADSVKGRFTISRDNAKNTVYLQMNSLKPEDTAVYYCAAEVYFGLFYVVFQYDYWGQGTQVTVSS | high polyreactivity
HVQLVESGGGLVQAGGSLRLSCAASGSTFAAYAMGWYRQAPGKERELVAAITKRGGTTYYADSVKGRVTISRDHAKNSVYLQMNSLKPEDTAVYYCAKTRYYSALLHYDYDTWGQGTQVTVST | high polyreactivity
QVQLVESGGGLVQAGGSLRLSCAASGLILKNYAMGWYRQAPWKERELVAAITRSGGSTYYADSVKGRFTISRDNAKNTVYLQMNSLKPEDTAVYYCAARNPSGKGRYDYRGQGTQVTVSS | high polyreactivity
QVQLGESGGGLVQAGGSLGLSCAASGLTFIVYAMGWYRQAPGKERELVADITWSGGSTYYADSVKGRFTISRDNAKNTVYLQMNSLKPEDTAVYYCNRQSGNIMDYWGQGTQVTVSS | low polyreactivity
QVQLVESGGGLVQAGGSLRLSCAASGSIIGFYVMGWYRQAPGKERELVAGISDSGGRTYYADSVKGRFTISRDNAKNTVYLQMNSLKPEDTAVYYCAAEAYKHGVWDYDYWGQGTQVTVSS | low polyreactivity
QVHLVESGGGLVQAGGSLRLSCAASGSIFRLYSMGWYRQAPGKERELVARITTGGSTNYADSVKGRFTISRDNAKNTVYLQMNSLKPEDTAVYYCNAGVWVTAQLGLQKYSYWGQGTQVTVSS | high polyreactivity
QVQLVESGGGLVQAGGSLRLSCSASGRTFIVYAMGWYRQAPGKERELVAAITTSVGRTYYADSVKGRFTISRDNAKNTVYLQMNSLKPEDTAVYYCAADRLDGYSEYYYWGQGTQVTVSS | low polyreactivity
QVQLVESGGGLDQAGGSLRLSCDASGFIFVRYAMGWSRQAPGKERELVAGINSGGSTSYADSVKGRFTISRDNAKNTVYLQMNSLKPEDSAVYYCNADVYVGYEYEYWGQGTQVTVSS | low polyreactivity
QDQLVESGGGLVQAVGSLRLSCAASGFTFYRNAMGWYRQAPGKERELVAAITWSGTSTYFADSVKGRFTISRDNAQNTVYLQLNSLKPEDTAVYYCNARGFQKSDPRGYLILNYWGQGTQVTVSS | high polyreactivity
QVQLVESRGGLVQAGGSLRLSCAASGYIINAYARGWYRQAPGKERELVAAISWSSDSTYYADSVKGRFTISRDIAKNTVYLQMNSLKPEVTAVYYCAAPYITPYGTYVFSSDYWGQGTQVTVSS | low polyreactivity
QVQLVESGGGLVQAGGSLRLSCAASGSIFASNAMGWYRQAPGKERELVAAIDDDGSTDYADSVKGRFTISRDNAKNTVYLQMNSLKPEDTAVYYCAVVTFWWGWTKYRGGFYWGQGTQVTVSS | low polyreactivity
QVQLVESGGGVVQAGRSLRLSCAASGSTFWAYLMGWYRQAPGIERELVASISRGGSTNYTDSVKGRFTISRDNAKNTVYLQMNSLKPEDTEVYYCAKRPYPYKYDYWGQGRQVTVSS | high polyreactivity
QDQLVQSGGGLVQAGGSLRLSCAASGRTFGKYAMGWYRQAPGKERELVAAITGGGGTKYADSVKGRFTISGDNAKNSVYLQMNSLKPEDTAVYYCAAASGSRRHGYWGQGTQVTVSS | high polyreactivity
QVHHVESGGGLVQAGGSLRLSCAASGRIFSYYAMGRYRPAPGKERELVAAITSRGTRTYYADSVKGRFTISRDNAKNTVYLQMNSLKPDDTAVYYCNVVSDIRLYFRFAYDYWGQGTQVTVSS | high polyreactivity
QFQLVESGGGLVQAGGSLRLSCAASGSIFKYNAMGWYRQAPGKEREFVAAISSSSGNTYYADSVKGRFTISRDNAKNTLYFQMNSLKPEDTAVYYCAADASRPRIPEMYYWGQGTQVTVSS | high polyreactivity
QVQLVESGGGLVQAGGSLRLSSAASGSNFWYYAMGWYRQSPGKERELVAAISAISGTTYYADSEKGRFTISRDNAKNTVYLQMNSLKPEDTAVYYCNKDASWWTDRSYDYWGQGTQVTVSS | low polyreactivity
QVQLVESGGGLVQAGGSLRLSCAASGSTFYGYAMGWYRQAPGKERELVAAISSGASTYYADSVKGRFTISRDNAKNSVYLQMNSLKPEDTAVYYCAAYSYPKKYGYWGQGTQVTVSL | high polyreactivity

Sequence | polyreactivity (PSR sort gate)
QVQLVESGGGLVQAGGSLRLSCAASGRTFGRYAMGWSRQAPGKERELVAAIRYTGGSTYADSVKGRFTISRDNAKNTVYLQMNSLKPEDTAVYYCAVLFYNNFGYWGQGTQVTVSS | low polyreactivity
QVQLVESGGGLVQAGGSLRLSCAASGFIFKQYAMGWYRQAPGKERELVAAISWTGGSTYYADSVKGRFTISRDNAKNTVYLQMNSLKPEDTAVYYCAAKRRTRQSYYTEYYWGQGTQVTVSS | high polyreactivity
QVQLVESGGGLVQAGGSLRLSCAASGLTFYYYAMGWYRQAPGKERELVAAISRSGGSTYYADSVKGRFTISRDNAKNTVYLQMNSLKPEDTAVYYCAAYGPASVYEVAMDYWGQGTQVTVSS | high polyreactivity
QVQLVESGGGLVQAGGSLRLSCAASGSIFYYYAMGWYRQAPGKERELVASITSGGSTYYADSVKGRFTISRDNAKNTVYLQMNILKPEDTAVYYCAADVYRTWYWWFDYWGQGTQVTVSS | high polyreactivity
QVQLVESGGGLVQAGGSLRLSCAASGSILPGNAMGWYRQAPGKEREFVAAISKSGGRTNYADSVKGRFTISRDNAKNTVYLQMNSLKPEDTAVYYCAARRSTGYGKSNLYNYWGQGTQVTVSS | high polyreactivity
QVQLVESGGGLVQAGGSLRLSCASTGSTFTTYAMGWYRQPPGKERELVAAISSRSTRTYYADSVKGRFTISRDNAKNTVYLQMNSLKPEDTAVYYCAASVPWKYEYWGQGTQVTVSS | high polyreactivity
QVQLVESGGGLVQAGGSLRLSCAASGLTFYTYAMGWYIQAPGTERELVAAISSGGSTNYADSVKGRFTISRDNAKNTVYLQMNSLKPEDTAVYYCAADPSYYTYFSFDLSESDYWGQGTQVTVSS | low polyreactivity
QVQLVESGAGLVQAGGSLRLCCAASGFIFRVYAMGLYRQAPGKERELVAAISDSGGSTTYADSVKGRFTISRDNAKNTVYLQMNSLKPEDTAVYYCAAKLPRSRYRGVDYWGQGTQVTVSS | low polyreactivity
QVQLVESGGGLVQAGGSLRLSCASSGFTFYKYAMGWYRQAPGKERELVAAITRGDSTYYADSVKGRFTISRDNAKNTVYLQMNSLKPEDTAVYYCNAVFSYRLFNYWGQGTQVTVSS | high polyreactivity
PVQLVESGGGLVQAGGILRLSCAACGRIFQRNAMGWYRQAPGKERELVATITSRGGSTYYADSVKGRFTISRDNAKNTVYLQMNSLKPEDTAVYYCAADPRRYRGFGYVYGGFYYWGQGTQVTVSS | low polyreactivity
QVQLVESGGGLVQAGGSLRLSCAASGSTFYYNAMGWYRQAPGKEREFVAANSSRGGSTYYADSVKGRFTISRDNAKNTVYLQMNSLKPEDTAVYYCAADYYVWTPIGVRQYDYWGHGTQVTVSS | high polyreactivity
QVHLVESGGGLVQAGGSLRLSCAASGFIFPAYVMGWYRQAPGKERELVAVIGSGGSTSYADSVKGRFTISRDNAKNTVYLQMNSLKPEDTAVYYCTADPTWFGYVYYQYDYWGQGTKVTVSS | low polyreactivity
QVQLVESGGALVQAGGSLRLSCAASGSTFDDNAMGWYRQAPGKERELVASITYRGGSTYYADSVKGRFTISRDNAKNTVYLQMNSLKPEDTAVYYCAKGHYFKYDYWGQGTQVTVSS | low polyreactivity
QVQLVESGGGLVQAGGSLRLSCAASGSTFSLYAMGWYRQAPGKERELVARISYTDGSTYYADSVKGRFTISRDNAKNTVYLQMNSLKPEDTAVYYCAAEAWYSYTLEDYWGQGTQVTVSS | low polyreactivity
QVQLVESGGGLVQAGGSLRLSCAASGSTFTGYTMGWYRQAPGKERELVAAISRRGTSTYYADSVKGRFTISRDNAKNTVYLQMNSLKPEDTAVYYCAAYQGQKGYDYWGQGTQVTVSS | high polyreactivity
QVQLVESGGGLVQAGGSLRLSCAASGSTLGVYVMGWYRQAPGKERELVAAISRNGGSTYYADSVKGRFTISRDNAKITVYLQMNSLKPEDTAVYYCAARTVGRKAGFDYWGQGTQVTVSS | high polyreactivity
QVQLVESGGGLVQAGGRLRLSCAASGSIFRLYAMGWYRQAPGKEREFVAGITRRTGSTYYADSVKGRFTISRDNAKNTVNLQMNSLKPEDTAVYYCAKRDARATPFGYWGQGTQVTVSS | high polyreactivity
QVQLVESGGGLVQAGGSLRLSCAASGNTFTGYAMGWYREAPGKERELVAAITRSGRTYYADSVKGRFTISRDNAKNTVYLQMTSLKPEDTAVYYCAADRRYVKYYYSGQGTQVTVSS | high polyreactivity
QDQLVESGGGLVQAGGSLRLSCAASGLIFDSYAMGWYRQAPGKERELVAAITYTGGSTYYADSVKGRFTISRDNAKNTVYLQMNSLKPEDTAVYYCAADSPGPWRYDYWGQGTQVTVSS | high polyreactivity
QVQLVESGGGLVQAGGSLRLSCAASGIIFQYYAMGWYRQAPGKERELVAAITSSGGSTFYADSVKGRFTISRDNSKNTVYLQMNSLKPEDTAVFYCAGVYHRSTYDYWGQGTQVTVSS | high polyreactivity
QVQLVESGGGLVQAGGSLRLSCAASGRIFRFYAMGWYRQAPGKERELVAGITYSGGSTFYADSVKGRFTISRDNAKNTVYLQMNSLKPEDTAVYYCAAVYVPYYWLGRSRGLDYWGQGTQVTVSS | high polyreactivity
